{"source": "IntAct's records for PubMed 17555716", "parents": {"B1": {"name": "26S proteasome regulatory subunit 6B homolog (Saccharomyces cerevisiae), P33298 (parent)", "chain": "MEELGIVTPVEKAVEEKPAVKSYASLLAQLNGTVNNNSALSNVNSDIYFKLKKLEKEYELLTLQEDYIKDEQRHLKRELKRAQEEVKRIQSVPLVIGQFLEPIDQNTGIVSSTTGMSYVVRILSTLDRELLKPSMSVALHRHSNALVDILPPDSDSSISVMGENEKPDVTYADVGGLDMQKQEIREAVELPLVQADLYEQIGIDPPRGVLLYGPPGTGKTMLVKAVANSTKAAFIRVNGSEFVHKYLGEGPRMVRDVFRLARENAPSIIFIDEVDSIATKRFDAQTGSDREVQRILIELLTQMDGFDQSTNVKVIMATNRADTLDPALLRPGRLDRKIEFPSLRDRRERRLIFGTIASKMSLAPEADLDSLIIRNDSLSGAVIAAIMQEAGLRAVRKNRYVILQSDLEEAYATQVKTDNTVDKFDFYK", "partner": "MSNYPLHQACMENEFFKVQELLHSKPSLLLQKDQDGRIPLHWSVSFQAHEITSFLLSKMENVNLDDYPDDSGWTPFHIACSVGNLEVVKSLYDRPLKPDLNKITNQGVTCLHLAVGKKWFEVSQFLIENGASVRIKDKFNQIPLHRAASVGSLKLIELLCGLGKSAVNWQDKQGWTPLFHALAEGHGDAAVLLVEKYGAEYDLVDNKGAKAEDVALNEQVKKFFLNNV"}}, "data": [{"variants_of": "B1", "conditions": "with psd10_yeast NAS6, P50086", "values": [{"variant": "MEELGIVTPVEKAVEEKPAVKSYASLLAQLNGTVNNNSALSNVNSDIYFKLKKLEKEYELLTLQEDYIKDEQRHLKRELKRAQEEVKRIQSVPLVIGQFLEPIDQNTGIVSSTTGMSYVVRILSTLDRELLKPSMSVALHRHSNALVDILPPDSDSSISVMGENEKPDVTYADVGGLDMQKQEIREAVELPLVQADLYEQIGIDPPRGVLLYGPPGTGKTMLVKAVANSTKAAFIRVNGSEFVHKYLGEGPRMVRDVFRLARENAPSIIFIDEVDSIATKRFDAQTGSDREVQRILIELLTQMDGFDQSTNVKVIMATNRADTLDPALLRPGRLDRKIEFPSLRDRRERRLIFGTIASKMSLAPAAALDSLIIRNDSLSGAVIAAIMQEAGLRAVRKNRYVILQSDLEEAYATQVKTDNTVDKFDFYK", "note": "[E365A;D367A]", "effect of a mutation on the interaction": "disrupting interaction strength"}, {"variant": "MEELGIVTPVEKAVEEKPAVKSYASLLAQLNGTVNNNSALSNVNSDIYFKLKKLEKEYELLTLQEDYIKDEQRHLKRELKRAQEEVKRIQSVPLVIGQFLEPIDQNTGIVSSTTGMSYVVRILSTLDRELLKPSMSVALHRHSNALVDILPPDSDSSISVMGENEKPDVTYADVGGLDMQKQEIREAVELPLVQADLYEQIGIDPPRGVLLYGPPGTGKTMLVKAVANSTKAAFIRVNGSEFVHKYLGEGPRMVRDVFRLARENAPSIIFIDEVDSIATKRFDAQTGSDREVQRILIELLTQMDGFDQSTNVKVIMATNRADTLDPALLRPGRLDRKIEFPSLRDRRERRLIFGTIASKMSLAPEADLDSLIIRNDSLSGAVIAAIMQEAGLRAVRANAYVILQSDLEEAYATQVKTDNTVDKFDFYK", "note": "[K397A;R399A]", "effect of a mutation on the interaction": "disrupting interaction strength"}]}]}
